Experimental data from paper PMC11763338.

Target: recombinant human α-synuclein protein seeds (human) (UniProt P37840)

percent inhibition of aggregation of α-syn monomer seeded by m2, cell-free ThT fluorescence at 24 h; R18D 0.05-0.25 μM pre-incubated with the seeds: 62.1%
percent inhibition of intracellular α-syn aggregation in rat cortical neurons exposed to seeds (0.14 μM), HTRF aggregate assay at 48 h; R18D 0.0625-0.5 μM added 2 h after the seeds: 37.8%
Substance: R18D (18-mer of D-arginine) (peptide)
